Test results as given in PMC9482650, “Quantitative fragmentomics allow affinity mapping of interactomes” (Nature Communications, 2022).

The binders below were run against FRMPD4, Q14CM0 (assay: holdup assay). Conditions: plain residues with an end cap or a label only (N-terminal biotin on a linker: ado-ado).
Sequence of FRMPD4, Q14CM0 (Q14CM0 67-160): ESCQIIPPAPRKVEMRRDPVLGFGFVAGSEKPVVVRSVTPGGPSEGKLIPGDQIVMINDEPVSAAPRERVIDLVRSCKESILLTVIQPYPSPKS
Design: key: below the threshold = too weak to quantify, mostly under pKd 3.1 to 4
IKAIVDLTGL [TRAF2, Q12933] showed a pKd of 3.7.
For CLREWCDAFL [BANF1, O75531], the pKd was 4.72.

What follows are binders tested against FRMPD3, Q5JV73 (assay: holdup assay). Conditions: plain residues with an end cap or a label only (N-terminal biotin on a linker: ado-ado).
Sequence of FRMPD3, Q5JV73 (Q5JV73 12-100): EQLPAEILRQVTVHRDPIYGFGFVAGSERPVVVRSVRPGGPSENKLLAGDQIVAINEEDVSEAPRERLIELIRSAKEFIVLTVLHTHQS
Design: key: below the threshold = too weak to quantify, mostly under pKd 3.1 to 4
In the case of IKAIVDLTGL [TRAF2, Q12933], the pKd is reported as “below the threshold”.
Binder CLREWCDAFL [BANF1, O75531] has a pKd of 3.66.

What follows are binders tested against T1, PDZRN3_1, Q9UPQ7 (assay: holdup assay). Conditions: plain residues with an end cap or a label only (N-terminal biotin on a linker: ado-ado).
T1 sequence (Q9UPQ7 244-349, limits assumed, looked up): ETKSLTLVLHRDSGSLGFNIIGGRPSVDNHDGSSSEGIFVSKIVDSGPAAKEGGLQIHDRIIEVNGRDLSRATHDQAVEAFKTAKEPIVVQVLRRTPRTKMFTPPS
Design: key: below the threshold = too weak to quantify, mostly under pKd 3.1 to 4
For IKAIVDLTGL [TRAF2, Q12933], the pKd was “below the threshold”.
CLREWCDAFL [BANF1, O75531] was tested, and the pKd was “below the threshold”.

These binders were tested against DLG4_3, P78352 (assay: holdup assay). Conditions: plain residues with an end cap or a label only (N-terminal biotin on a linker: ado-ado).
Sequence of DLG4_3, P78352 (P78352 306-403): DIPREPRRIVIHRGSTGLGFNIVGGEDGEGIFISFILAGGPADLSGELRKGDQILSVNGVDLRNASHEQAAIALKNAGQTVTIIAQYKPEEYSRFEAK
Design: key: below the threshold = too weak to quantify, mostly under pKd 3.1 to 4
In the case of IKAIVDLTGL [TRAF2, Q12933], the pKd is reported as “below the threshold”.
With CLREWCDAFL [BANF1, O75531] the pKd was “below the threshold”.

These binders were tested against PICK1, Q9NRD5 (assay: holdup assay). Conditions: plain residues with an end cap or a label only (N-terminal biotin on a linker: ado-ado).
Sequence of PICK1, Q9NRD5 (Q9NRD5 17-115): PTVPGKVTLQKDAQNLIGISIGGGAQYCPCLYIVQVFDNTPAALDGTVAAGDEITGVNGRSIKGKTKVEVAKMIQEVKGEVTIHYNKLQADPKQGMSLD
Design: key: below the threshold = too weak to quantify, mostly under pKd 3.1 to 4
For IKAIVDLTGL [TRAF2, Q12933], the pKd was “below the threshold”.
CLREWCDAFL [BANF1, O75531] was tested, and the pKd was “below the threshold”.

These binders were tested against LNX1_3, Q8TBB1 (assay: holdup assay). Conditions: plain residues with an end cap or a label only (N-terminal biotin on a linker: ado-ado).
Sequence of LNX1_3, Q8TBB1 (Q8TBB1 500-596): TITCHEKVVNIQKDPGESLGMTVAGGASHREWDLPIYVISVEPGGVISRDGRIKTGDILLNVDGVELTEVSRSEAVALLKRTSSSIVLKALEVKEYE
Design: key: below the threshold = too weak to quantify, mostly under pKd 3.1 to 4
IKAIVDLTGL [TRAF2, Q12933] was tested, and the pKd was “below the threshold”.
In the case of CLREWCDAFL [BANF1, O75531], the pKd is reported as “below the threshold”.

What follows are binders tested against MAGI2_5, Q86UL8 (assay: holdup assay). Conditions: plain residues with an end cap or a label only (N-terminal biotin on a linker: ado-ado).
Sequence of MAGI2_5, Q86UL8 (Q86UL8 915-1017): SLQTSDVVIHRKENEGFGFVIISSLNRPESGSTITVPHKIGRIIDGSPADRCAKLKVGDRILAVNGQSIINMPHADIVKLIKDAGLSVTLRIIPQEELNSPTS
Design: key: below the threshold = too weak to quantify, mostly under pKd 3.1 to 4
In the case of IKAIVDLTGL [TRAF2, Q12933], the pKd is reported as “below the threshold”.
CLREWCDAFL [BANF1, O75531] was tested, and the pKd was “below the threshold”.

What follows are binders tested against GORASP1, Q9BQQ3 (assay: holdup assay). Conditions: plain residues with an end cap or a label only (N-terminal biotin on a linker: ado-ado).
Sequence of GORASP1, Q9BQQ3 (Q9BQQ3 1-208): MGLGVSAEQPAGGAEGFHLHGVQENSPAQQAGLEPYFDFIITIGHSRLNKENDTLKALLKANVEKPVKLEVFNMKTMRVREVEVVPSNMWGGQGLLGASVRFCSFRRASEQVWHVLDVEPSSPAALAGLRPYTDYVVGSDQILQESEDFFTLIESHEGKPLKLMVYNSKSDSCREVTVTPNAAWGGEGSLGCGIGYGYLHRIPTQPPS
Design: key: below the threshold = too weak to quantify, mostly under pKd 3.1 to 4
With IKAIVDLTGL [TRAF2, Q12933] the pKd was “below the threshold”.
Work on CLREWCDAFL [BANF1, O75531] yielded a pKd of 3.82.

The binders below were run against T2, GRIP1_3, Q9Y3R0 (assay: holdup assay). Conditions: plain residues with an end cap or a label only (N-terminal biotin on a linker: ado-ado).
T2 sequence (Q9Y3R0 247-346, limits assumed, looked up): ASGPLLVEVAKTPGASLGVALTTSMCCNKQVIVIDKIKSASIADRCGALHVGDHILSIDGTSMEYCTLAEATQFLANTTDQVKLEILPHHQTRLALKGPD
Design: key: below the threshold = too weak to quantify, mostly under pKd 3.1 to 4
For IKAIVDLTGL [TRAF2, Q12933], the pKd was “below the threshold”.
In the case of CLREWCDAFL [BANF1, O75531], the pKd is reported as “below the threshold”.

What follows are binders tested against GRIP2_4, Q9C0E4 (assay: holdup assay). Conditions: plain residues with an end cap or a label only (N-terminal biotin on a linker: ado-ado).
Sequence of GRIP2_4, Q9C0E4 (Q9C0E4 446-548): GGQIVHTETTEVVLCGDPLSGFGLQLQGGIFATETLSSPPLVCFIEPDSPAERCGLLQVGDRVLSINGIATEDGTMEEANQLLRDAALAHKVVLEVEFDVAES
Design: key: below the threshold = too weak to quantify, mostly under pKd 3.1 to 4
With IKAIVDLTGL [TRAF2, Q12933] the pKd was “below the threshold”.
In the case of CLREWCDAFL [BANF1, O75531], the pKd is reported as “below the threshold”.

The binders below were run against MAGI2_6, Q86UL8 (assay: holdup assay). Conditions: plain residues with an end cap or a label only (N-terminal biotin on a linker: ado-ado).
Sequence of MAGI2_6, Q86UL8 (Q86UL8 1141-1229): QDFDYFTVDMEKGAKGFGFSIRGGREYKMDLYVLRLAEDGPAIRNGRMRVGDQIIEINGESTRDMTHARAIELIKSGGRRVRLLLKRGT
Design: key: below the threshold = too weak to quantify, mostly under pKd 3.1 to 4
In the case of IKAIVDLTGL [TRAF2, Q12933], the pKd is reported as “below the threshold”.
CLREWCDAFL [BANF1, O75531] showed a pKd of 4.36.

The binders below were run against LNX1_1, Q8TBB1 (assay: holdup assay). Conditions: plain residues with an end cap or a label only (N-terminal biotin on a linker: ado-ado).
Sequence of LNX1_1, Q8TBB1 (Q8TBB1 261-371): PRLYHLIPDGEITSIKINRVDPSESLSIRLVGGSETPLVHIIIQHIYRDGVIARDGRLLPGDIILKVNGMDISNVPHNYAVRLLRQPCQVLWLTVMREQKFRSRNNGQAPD
Design: key: below the threshold = too weak to quantify, mostly under pKd 3.1 to 4
In the case of IKAIVDLTGL [TRAF2, Q12933], the pKd is reported as “below the threshold”.
CLREWCDAFL [BANF1, O75531] was tested, and the pKd was “below the threshold”.

The binders below were run against SCRIB_2, Q14160 (assay: holdup assay). Conditions: plain residues with an end cap or a label only (N-terminal biotin on a linker: ado-ado).
Sequence of SCRIB_2, Q14160 (Q14160 857-960): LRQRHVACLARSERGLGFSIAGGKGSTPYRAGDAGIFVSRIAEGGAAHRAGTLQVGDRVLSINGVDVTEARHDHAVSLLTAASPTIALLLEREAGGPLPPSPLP
Design: key: below the threshold = too weak to quantify, mostly under pKd 3.1 to 4
IKAIVDLTGL [TRAF2, Q12933] was tested, and the pKd was “below the threshold”.
For CLREWCDAFL [BANF1, O75531], the pKd was “below the threshold”.

The binders below were run against T3, APBA2_2, Q99767 (assay: holdup assay). Conditions: plain residues with an end cap or a label only (N-terminal biotin on a linker: ado-ado).
T3 sequence (Q99767 654-744, limits assumed, looked up): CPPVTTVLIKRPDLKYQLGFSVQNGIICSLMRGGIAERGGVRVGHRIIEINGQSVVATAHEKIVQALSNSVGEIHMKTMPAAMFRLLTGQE
Design: key: below the threshold = too weak to quantify, mostly under pKd 3.1 to 4
With IKAIVDLTGL [TRAF2, Q12933] the pKd was “below the threshold”.
CLREWCDAFL [BANF1, O75531] was tested, and the pKd was “below the threshold”.

What follows are binders tested against Inadl_1, Q8NI35 (assay: holdup assay). Conditions: plain residues with an end cap or a label only (N-terminal biotin on a linker: ado-ado).
Sequence of Inadl_1, Q8NI35 (Q8NI35 113-229): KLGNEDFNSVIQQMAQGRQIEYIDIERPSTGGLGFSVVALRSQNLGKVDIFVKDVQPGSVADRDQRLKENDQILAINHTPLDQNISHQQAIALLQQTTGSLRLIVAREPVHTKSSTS
Design: key: below the threshold = too weak to quantify, mostly under pKd 3.1 to 4
With IKAIVDLTGL [TRAF2, Q12933] the pKd was “below the threshold”.
With CLREWCDAFL [BANF1, O75531] the pKd was “below the threshold”.

These binders were tested against T4, TX1BP3, O14907 (assay: holdup assay). Conditions: plain residues with an end cap or a label only (N-terminal biotin on a linker: ado-ado).
T4 sequence (O14907 10-122, limits assumed, looked up): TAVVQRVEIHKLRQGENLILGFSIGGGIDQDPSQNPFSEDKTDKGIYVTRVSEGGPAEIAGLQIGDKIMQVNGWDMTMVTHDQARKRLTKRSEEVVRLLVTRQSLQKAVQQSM
Design: key: below the threshold = too weak to quantify, mostly under pKd 3.1 to 4
IKAIVDLTGL [TRAF2, Q12933] was tested, and the pKd was “below the threshold”.
For CLREWCDAFL [BANF1, O75531], the pKd was 4.62.

These binders were tested against SCRIB_3, Q14160 (assay: holdup assay). Conditions: plain residues with an end cap or a label only (N-terminal biotin on a linker: ado-ado).
Sequence of SCRIB_3, Q14160 (Q14160 999-1103): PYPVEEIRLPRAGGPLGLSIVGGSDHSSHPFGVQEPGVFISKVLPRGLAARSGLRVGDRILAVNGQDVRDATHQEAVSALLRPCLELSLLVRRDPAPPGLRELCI
Design: key: below the threshold = too weak to quantify, mostly under pKd 3.1 to 4
With IKAIVDLTGL [TRAF2, Q12933] the pKd was “below the threshold”.
Binder CLREWCDAFL [BANF1, O75531] has a pKd of 4.03.

These binders were tested against T5, RADIL, Q96JH8 (assay: holdup assay). Conditions: plain residues with an end cap or a label only (N-terminal biotin on a linker: ado-ado).
T5 sequence (Q96JH8 971-1071, limits assumed, looked up): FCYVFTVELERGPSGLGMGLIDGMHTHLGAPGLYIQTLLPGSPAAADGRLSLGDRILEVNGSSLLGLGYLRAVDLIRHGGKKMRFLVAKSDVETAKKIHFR
Design: key: below the threshold = too weak to quantify, mostly under pKd 3.1 to 4
With IKAIVDLTGL [TRAF2, Q12933] the pKd was “below the threshold”.
CLREWCDAFL [BANF1, O75531] was tested, and the pKd was 3.85.

The binders below were run against T6, GRIP1_5, Q9Y3R0 (assay: holdup assay). Conditions: plain residues with an end cap or a label only (N-terminal biotin on a linker: ado-ado).
T6 sequence (Q9Y3R0 568-668, limits assumed, looked up): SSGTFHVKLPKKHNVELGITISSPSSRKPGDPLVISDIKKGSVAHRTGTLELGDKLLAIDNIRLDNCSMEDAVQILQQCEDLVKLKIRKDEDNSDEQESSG
Design: key: below the threshold = too weak to quantify, mostly under pKd 3.1 to 4
For IKAIVDLTGL [TRAF2, Q12933], the pKd was “below the threshold”.
For CLREWCDAFL [BANF1, O75531], the pKd was “below the threshold”.

Each binder was assayed against DLG4_2, P78352 (assay: holdup assay). Conditions: plain residues with an end cap or a label only (N-terminal biotin on a linker: ado-ado).
Sequence of DLG4_2, P78352 (P78352 155-259): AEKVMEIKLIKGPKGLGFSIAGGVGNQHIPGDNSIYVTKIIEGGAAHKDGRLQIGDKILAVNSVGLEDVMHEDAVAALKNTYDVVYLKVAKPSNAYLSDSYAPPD
Design: key: below the threshold = too weak to quantify, mostly under pKd 3.1 to 4
With IKAIVDLTGL [TRAF2, Q12933] the pKd was “below the threshold”.
In the case of CLREWCDAFL [BANF1, O75531], the pKd is reported as “below the threshold”.

What follows are binders tested against SNX27, Q96L92 (assay: holdup assay). Conditions: plain residues with an end cap or a label only (N-terminal biotin on a linker: ado-ado).
Design: key: below the threshold = too weak to quantify, mostly under pKd 3.1 to 4
IKAIVDLTGL [TRAF2, Q12933] gave a pKd of 3.51.
Work on CLREWCDAFL [BANF1, O75531] yielded a pKd of 4.58.

These binders were tested against MAGI1_2, Q96QZ7 (assay: holdup assay). Conditions: plain residues with an end cap or a label only (N-terminal biotin on a linker: ado-ado).
Sequence of MAGI1_2, Q96QZ7 (Q96QZ7 456-580): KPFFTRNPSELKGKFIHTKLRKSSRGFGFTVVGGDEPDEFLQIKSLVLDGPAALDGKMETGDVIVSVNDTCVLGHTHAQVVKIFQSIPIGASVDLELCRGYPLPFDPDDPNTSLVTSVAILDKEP
Design: key: below the threshold = too weak to quantify, mostly under pKd 3.1 to 4
IKAIVDLTGL [TRAF2, Q12933] was tested, and the pKd was “below the threshold”.
For CLREWCDAFL [BANF1, O75531], the pKd was “below the threshold”.

The binders below were run against PDZRN4_1, Q6ZMN7 (assay: holdup assay). Conditions: plain residues with an end cap or a label only (N-terminal biotin on a linker: ado-ado).
Sequence of PDZRN4_1, Q6ZMN7 (Q6ZMN7 213-318): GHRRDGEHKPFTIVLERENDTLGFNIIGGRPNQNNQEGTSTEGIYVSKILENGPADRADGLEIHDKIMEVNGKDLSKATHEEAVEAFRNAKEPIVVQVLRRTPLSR
Design: key: below the threshold = too weak to quantify, mostly under pKd 3.1 to 4
IKAIVDLTGL [TRAF2, Q12933] was tested, and the pKd was “below the threshold”.
With CLREWCDAFL [BANF1, O75531] the pKd was “below the threshold”.

Each binder was assayed against Inadl_6, Q8NI35 (assay: holdup assay). Conditions: plain residues with an end cap or a label only (N-terminal biotin on a linker: ado-ado).
Sequence of Inadl_6, Q8NI35 (Q8NI35 1058-1167): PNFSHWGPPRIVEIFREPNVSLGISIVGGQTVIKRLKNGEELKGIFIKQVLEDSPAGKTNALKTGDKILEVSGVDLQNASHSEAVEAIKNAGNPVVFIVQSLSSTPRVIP
Design: key: below the threshold = too weak to quantify, mostly under pKd 3.1 to 4
IKAIVDLTGL [TRAF2, Q12933] was tested, and the pKd was “below the threshold”.
For CLREWCDAFL [BANF1, O75531], the pKd was 4.32.

These binders were tested against MAGI1_1, Q96QZ7 (assay: holdup assay). Conditions: plain residues with an end cap or a label only (N-terminal biotin on a linker: ado-ado).
Sequence of MAGI1_1, Q96QZ7 (Q96QZ7 1-106): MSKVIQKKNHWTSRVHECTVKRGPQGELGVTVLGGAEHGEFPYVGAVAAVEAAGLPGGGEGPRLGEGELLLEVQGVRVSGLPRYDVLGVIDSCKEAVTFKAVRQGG
Design: key: below the threshold = too weak to quantify, mostly under pKd 3.1 to 4
IKAIVDLTGL [TRAF2, Q12933] was tested, and the pKd was “below the threshold”.
With CLREWCDAFL [BANF1, O75531] the pKd was “below the threshold”.

What follows are binders tested against LNX1_2, Q8TBB1 (assay: holdup assay). Conditions: plain residues with an end cap or a label only (N-terminal biotin on a linker: ado-ado).
Sequence of LNX1_2, Q8TBB1 (Q8TBB1 371-470): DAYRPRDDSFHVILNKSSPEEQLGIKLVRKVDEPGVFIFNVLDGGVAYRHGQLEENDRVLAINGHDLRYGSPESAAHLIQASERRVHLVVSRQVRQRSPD
Design: key: below the threshold = too weak to quantify, mostly under pKd 3.1 to 4
IKAIVDLTGL [TRAF2, Q12933] was tested, and the pKd was “below the threshold”.
In the case of CLREWCDAFL [BANF1, O75531], the pKd is reported as “below the threshold”.

Each binder was assayed against IL16_4, Q14005 (assay: holdup assay). Conditions: plain residues with an end cap or a label only (N-terminal biotin on a linker: ado-ado).
Sequence of IL16_4, Q14005 (Q14005 1229-1329): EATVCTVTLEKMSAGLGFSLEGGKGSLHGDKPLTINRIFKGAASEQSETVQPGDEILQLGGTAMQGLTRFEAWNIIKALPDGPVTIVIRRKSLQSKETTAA
Design: key: below the threshold = too weak to quantify, mostly under pKd 3.1 to 4
IKAIVDLTGL [TRAF2, Q12933] was tested, and the pKd was “below the threshold”.
With CLREWCDAFL [BANF1, O75531] the pKd was “below the threshold”.

What follows are binders tested against GRIP2_7, Q9C0E4 (assay: holdup assay). Conditions: plain residues with an end cap or a label only (N-terminal biotin on a linker: ado-ado).
Sequence of GRIP2_7, Q9C0E4 (Q9C0E4 934-1023): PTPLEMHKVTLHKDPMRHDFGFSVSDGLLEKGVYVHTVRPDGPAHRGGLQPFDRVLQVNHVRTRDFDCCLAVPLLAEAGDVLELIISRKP
Design: key: below the threshold = too weak to quantify, mostly under pKd 3.1 to 4
In the case of IKAIVDLTGL [TRAF2, Q12933], the pKd is reported as “below the threshold”.
CLREWCDAFL [BANF1, O75531] was tested, and the pKd was “below the threshold”.

These binders were tested against T7, SNTB1, Q13884 (assay: holdup assay). Conditions: plain residues with an end cap or a label only (N-terminal biotin on a linker: ado-ado).
T7 sequence (Q13884 107-205, limits assumed, looked up): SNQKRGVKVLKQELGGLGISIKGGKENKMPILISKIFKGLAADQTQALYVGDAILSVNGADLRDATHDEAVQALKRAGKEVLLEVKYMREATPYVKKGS
Design: key: below the threshold = too weak to quantify, mostly under pKd 3.1 to 4
In the case of IKAIVDLTGL [TRAF2, Q12933], the pKd is reported as “below the threshold”.
CLREWCDAFL [BANF1, O75531] was tested, and the pKd was “below the threshold”.

These binders were tested against CASK, O14936 (assay: holdup assay). Conditions: plain residues with an end cap or a label only (N-terminal biotin on a linker: ado-ado).
Sequence of CASK, O14936 (O14936 487-570): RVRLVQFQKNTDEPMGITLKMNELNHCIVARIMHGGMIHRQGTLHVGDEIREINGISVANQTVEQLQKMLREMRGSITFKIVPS
Design: key: below the threshold = too weak to quantify, mostly under pKd 3.1 to 4
IKAIVDLTGL [TRAF2, Q12933] was tested, and the pKd was “below the threshold”.
CLREWCDAFL [BANF1, O75531] showed a pKd of 3.52.
